What was measured:
[1] = target: SLX1 endogenous in Xenopus egg extract (Xenopus laevis (endogenous in Xenopus egg extract)) (UniProt Q0IH86); assay: co-depletion by immunodepletion
[2] = target: SLX4 endogenous in Xenopus egg extract (Xenopus laevis (endogenous in Xenopus egg extract)); assay: co-depletion by immunodepletion

Chain of UniProt Q0IH86 (Q0IH86 whole entry): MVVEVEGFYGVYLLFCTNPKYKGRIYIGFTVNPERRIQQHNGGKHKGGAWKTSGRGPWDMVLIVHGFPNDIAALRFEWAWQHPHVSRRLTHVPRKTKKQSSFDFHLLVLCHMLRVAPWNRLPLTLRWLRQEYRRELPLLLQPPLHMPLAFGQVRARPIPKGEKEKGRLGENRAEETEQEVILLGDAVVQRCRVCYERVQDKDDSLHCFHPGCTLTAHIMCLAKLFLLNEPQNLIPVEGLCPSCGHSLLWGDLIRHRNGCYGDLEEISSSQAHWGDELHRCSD

Row | percent co-depleted [1] | percent co-depleted [2] | Substance
1 | 90% | – | SLX4 endogenous in Xenopus egg extract (natural protein)
2 | 50% | 50% | XPF-ERCC1 endogenous in Xenopus egg extract (complex)

Source: paper PMC6411836
